This passage reports Kd results from article doi:10.1101/2025.07.08.663636.

Broadly, the Kd is the equilibrium constant for the complex coming apart. Low readings indicate a tighter complex, high ones a looser complex.

Test [1] deals with BiP NBD (human BiP nucleotide binding domain, aa 26-405, from 6His-Smt3-BiP NBD) (human) (UniProt P11021). As to the kind of experiment: MST.
Test [2] shares this target. As to the kind of experiment: SPR. (In general: Surface plasmon resonance follows binding to a sensor surface in real time, without labels.)

Sequence of UniProt P11021 (P11021 26-405): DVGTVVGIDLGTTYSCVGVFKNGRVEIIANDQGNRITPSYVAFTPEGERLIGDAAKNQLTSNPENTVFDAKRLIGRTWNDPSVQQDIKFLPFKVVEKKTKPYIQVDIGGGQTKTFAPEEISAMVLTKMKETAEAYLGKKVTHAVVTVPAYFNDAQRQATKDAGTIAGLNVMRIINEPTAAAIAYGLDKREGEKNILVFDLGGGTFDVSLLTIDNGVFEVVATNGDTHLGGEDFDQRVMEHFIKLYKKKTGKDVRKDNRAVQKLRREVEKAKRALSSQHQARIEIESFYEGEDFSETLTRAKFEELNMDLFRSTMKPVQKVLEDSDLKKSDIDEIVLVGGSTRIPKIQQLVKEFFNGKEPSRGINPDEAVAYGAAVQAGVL

With “CDNF V118Y-E137A double mutant purified from CHO cells (natural protein)”, the equilibrium dissociation constant (Kd) in test [1] was greater than 10 µM.
As to “FL-CDNF (aa 1-161) purified from E. coli (natural protein)”, the Kd in test [2] was found to be 23.4 µM.
In test [1], “CDNF A134Q purified from CHO cells (natural protein)” yielded a Kd greater than 10 µM.
